The text below walks through data of paper PMC8688422.

One experiment has as its target galectin-1 C3S (UniProt P09382).
In a further experiment the target is galectin-1 (UniProt P09382). The experiment can be described thus: SPR; BIAcore 1000, galectin-1 amine-coupled to CM5 chip, analyte injected at different concentrations, 25 °C, HBS-EP (10 mM HEPES, 150 mM NaCl, 3 mM EDTA, 0.005% P20) pH 7.4; single association, biphasic dissociation. For orientation: SPR reads the build-up and loss of mass on a sensor chip optically.

Some results are limits rather than exact numbers.

In general, kon refers to a measure of how fast the partners come together. In the experiment with galectin-1 C3S, platelet factor 4 (PF4/CXCL4) (ligand) returned a fluorescence anisotropy: binding affinity of galectin-1 C3S for the fluorescein-tagged tdga-probe with 8 µM CXCL4 against galectin-1 alone of 10 fold and a fluorescence anisotropy: inhibitory potency of asialofetuin (ASF) on the galectin-1 C3S/tdga-probe interaction with 8 µM CXCL4 against without greater than 600 fold. In the experiment with galectin-1, this substance came in with a K1 (kd1/ka) of 9 µM, a K2 (kd2/ka) of 483 nM, a kd1 (first phase of the biphasic dissociation) of 0.092 s⁻¹ and a kd2 (second phase of the biphasic dissociation) of 0.005 s⁻¹. For the same substance, in the experiment with galectin-1, the kon worked out at 10200 M⁻¹ s⁻¹ and the stoichiometry N (CXCL4 per galectin-1) was 2.
